The values that follow are results of earlier work, collected in publication PMC4030972.

pKd: −log10 of the molar value.

For the data set, the target named is cholera toxin A1 subunit CtxA1 (Vibrio cholerae) (UniProt P01555).
UniProt P01555, sequence (P01555 19-212): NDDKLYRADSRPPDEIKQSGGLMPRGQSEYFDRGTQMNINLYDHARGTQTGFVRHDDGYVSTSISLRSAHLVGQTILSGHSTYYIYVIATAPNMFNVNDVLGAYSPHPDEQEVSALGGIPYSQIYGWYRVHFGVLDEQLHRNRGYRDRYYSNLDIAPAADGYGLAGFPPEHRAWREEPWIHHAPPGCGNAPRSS

Turning to Hsp90 (from UniProt P08238), the negative logarithm of the Kd (pKd) (usually the Kd on a negative log10 scale, so that one unit is a factor of ten) was 8.15.
